The text below walks through data of patent EP2718311B1 (TLA Targeted Immunotherapies AB, dated 2018).

For assay [1], the target named is CCR2 on human peripheral blood cells (monocytes, T cells) (human) (UniProt P41597). Briefly: flow cytometry, labelled MCP-1 on fixed blood leukocytes of healthy donors, 30 min at 4 °C.
Assay [2] shares this target. Briefly: blood of three healthy donors passed through a column of bMCP-1 coupled matrix; flow cytometry before and after. On the technique in general: A flow cytometer gives signals particle by particle.
For a further assay, the target named is hCCR9 (human) (UniProt P51686). Briefly: cell-based or functional assay.
Chain of hCCR9 (human) (P51686 whole entry): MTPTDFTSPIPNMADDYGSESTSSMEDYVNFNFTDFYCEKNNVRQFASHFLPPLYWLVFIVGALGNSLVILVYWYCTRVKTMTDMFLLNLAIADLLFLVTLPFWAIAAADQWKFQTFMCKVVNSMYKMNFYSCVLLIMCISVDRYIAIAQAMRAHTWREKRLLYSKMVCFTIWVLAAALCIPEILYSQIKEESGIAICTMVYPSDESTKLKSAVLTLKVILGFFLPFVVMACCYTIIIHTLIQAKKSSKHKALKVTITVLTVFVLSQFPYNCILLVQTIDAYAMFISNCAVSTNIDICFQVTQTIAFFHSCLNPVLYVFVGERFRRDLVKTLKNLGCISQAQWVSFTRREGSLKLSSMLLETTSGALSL
The target of a further assay is hCXCR3 (human) (UniProt P49682). Briefly: cell-based or functional assay.
Chain of hCXCR3 (human) (P49682 whole entry): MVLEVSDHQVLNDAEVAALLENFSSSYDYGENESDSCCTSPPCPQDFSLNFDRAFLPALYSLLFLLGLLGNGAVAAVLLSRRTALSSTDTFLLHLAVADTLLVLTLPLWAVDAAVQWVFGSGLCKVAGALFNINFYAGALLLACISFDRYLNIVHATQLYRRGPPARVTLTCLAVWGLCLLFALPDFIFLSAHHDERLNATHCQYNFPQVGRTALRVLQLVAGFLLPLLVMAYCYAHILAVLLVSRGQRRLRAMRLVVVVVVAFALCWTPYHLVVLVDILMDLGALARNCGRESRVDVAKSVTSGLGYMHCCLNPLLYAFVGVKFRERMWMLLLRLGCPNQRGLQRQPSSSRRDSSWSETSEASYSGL
Assay [3] deals with hCCR3 (human) (UniProt P51677). Briefly: cell-based or functional assay.
Chain of hCCR3 (human) (P51677 whole entry): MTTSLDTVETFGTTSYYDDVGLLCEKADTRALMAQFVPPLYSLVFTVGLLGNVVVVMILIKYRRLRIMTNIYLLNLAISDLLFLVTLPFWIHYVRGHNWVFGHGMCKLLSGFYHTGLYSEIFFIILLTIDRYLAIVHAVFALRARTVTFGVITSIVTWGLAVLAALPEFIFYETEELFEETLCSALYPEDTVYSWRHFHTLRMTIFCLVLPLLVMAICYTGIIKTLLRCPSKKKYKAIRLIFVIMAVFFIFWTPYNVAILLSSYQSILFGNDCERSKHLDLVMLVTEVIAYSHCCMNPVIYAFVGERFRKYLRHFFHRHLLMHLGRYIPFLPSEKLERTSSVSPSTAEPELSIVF
Assay [4] deals with T1, CCR1 on human peripheral blood cells (human) (UniProt P32246).
T1 sequence (looked up): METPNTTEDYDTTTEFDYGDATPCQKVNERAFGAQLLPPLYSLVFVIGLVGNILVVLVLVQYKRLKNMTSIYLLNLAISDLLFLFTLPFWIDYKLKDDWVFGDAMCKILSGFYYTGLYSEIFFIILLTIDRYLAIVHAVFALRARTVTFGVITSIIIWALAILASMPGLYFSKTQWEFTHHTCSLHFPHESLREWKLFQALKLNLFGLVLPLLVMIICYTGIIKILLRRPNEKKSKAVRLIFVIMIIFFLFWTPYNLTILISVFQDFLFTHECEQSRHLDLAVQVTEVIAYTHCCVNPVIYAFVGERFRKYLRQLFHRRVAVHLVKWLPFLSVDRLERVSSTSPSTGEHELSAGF
Briefly: blood of a healthy donor passed through a column of biotinylated RANTES coupled matrix; flow cytometry for CCR1, 3 and 5-expressing cells.

Assay [5] addresses hCCR5 (human) (UniProt P51681). Described as above.
The target of assay [6] is hCCR3 (human) (UniProt P51677). The description is as above.
For assay [7], the target named is hCCR5 (human) (UniProt P51681). Briefly: cell-based or functional assay.
Chain of hCCR5 (human) (P51681 whole entry): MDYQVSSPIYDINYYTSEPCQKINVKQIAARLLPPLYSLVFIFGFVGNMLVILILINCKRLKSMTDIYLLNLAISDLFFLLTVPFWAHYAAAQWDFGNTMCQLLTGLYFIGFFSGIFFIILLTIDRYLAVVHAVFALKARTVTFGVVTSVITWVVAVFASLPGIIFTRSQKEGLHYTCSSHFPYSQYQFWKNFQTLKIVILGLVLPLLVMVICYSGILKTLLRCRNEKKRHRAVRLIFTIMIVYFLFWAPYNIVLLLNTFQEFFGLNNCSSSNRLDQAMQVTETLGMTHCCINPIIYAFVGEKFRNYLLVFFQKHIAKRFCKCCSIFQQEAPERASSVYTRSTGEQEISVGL
In another assay the target is hCCR6 (human) (UniProt P51684). Briefly: cell-based or functional assay.
Chain of hCCR6 (human) (P51684 whole entry): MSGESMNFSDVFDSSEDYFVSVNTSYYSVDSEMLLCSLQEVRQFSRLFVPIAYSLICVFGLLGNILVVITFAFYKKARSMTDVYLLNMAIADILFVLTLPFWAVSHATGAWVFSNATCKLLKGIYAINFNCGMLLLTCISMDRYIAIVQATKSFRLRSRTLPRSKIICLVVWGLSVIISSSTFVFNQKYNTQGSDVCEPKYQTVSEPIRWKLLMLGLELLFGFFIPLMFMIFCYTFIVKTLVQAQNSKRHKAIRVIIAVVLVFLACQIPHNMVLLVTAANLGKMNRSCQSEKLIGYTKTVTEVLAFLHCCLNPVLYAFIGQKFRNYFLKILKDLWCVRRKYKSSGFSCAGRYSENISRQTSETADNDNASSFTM
The target in the next assay is T2, hCCR2b (human, UniProt P41597 1-374).
T2 chain: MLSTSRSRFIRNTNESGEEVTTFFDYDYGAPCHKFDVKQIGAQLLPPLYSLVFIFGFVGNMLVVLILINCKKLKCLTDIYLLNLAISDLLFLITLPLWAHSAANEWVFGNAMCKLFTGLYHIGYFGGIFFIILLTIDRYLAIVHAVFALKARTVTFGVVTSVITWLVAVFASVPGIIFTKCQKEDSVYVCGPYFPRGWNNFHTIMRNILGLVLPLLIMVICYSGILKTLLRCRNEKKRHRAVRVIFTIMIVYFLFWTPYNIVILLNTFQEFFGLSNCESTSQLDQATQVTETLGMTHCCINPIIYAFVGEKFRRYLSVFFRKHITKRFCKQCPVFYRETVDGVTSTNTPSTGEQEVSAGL
Briefly: cell-based or functional assay.

The molecule “biotinylated MCP-1 (from UniProt P13500 24-99) (ligand)” displayed a percent of monocytes that bound the chemokine in assay [1] of 90%. In addition, in [2], the remaining levels of monocytes after column passage was in the range of 20 to 30%.

In the assay with hCCR9 (human), “recombinant native TECK (from UniProt O15444 24-150) (ligand)” gave an agonist activity in an Aequorin assay, EC50 of 67.9 nM.

In the assay with hCXCR3 (human), “recombinant native IP-10 (from UniProt P02778 22-98) (ligand)” registered an agonist activity in an Aequorin assay, EC50 of 4.4 nM.

In the assay with hCXCR3 (human), “recombinant native ITAC (from UniProt O14625 22-94) (ligand)” yielded an agonist activity in an Aequorin assay, EC50 of 0.7 nM.

As for “biotinTECK(Met to Nleu substitution) (from UniProt O15444 25-97) (ligand)”, the agonist activity in an Aequorin assay, EC50 with hCCR9 (human) was 63.6 nM.

With “recombinant native eotaxin (from UniProt P51671 24-97) (ligand)”, in the assay with hCCR3 (human) [3], the activity in an Aequorin assay (agonist), EC50 came out at 10.7 nM.

Take “biotinRANTES (CCL5) (from UniProt P13501 24-91) (ligand)”: the reduction of chemokine receptor-expressing cells by the column (in assay [4]; with hCCR5 (human) [5]; with hCCR3 (human) [6]) was 20% throughout. Moreover, the agonist activity in an Aequorin assay, EC50 with hCCR5 (human) [7] came out at 0.5 nM.

As for “recombinant native MIP-3α (from UniProt P78556 27-96) (ligand)”, the agonist activity in an Aequorin assay, EC50 with hCCR6 (human) came out at 1 nM.

B1: recombinant native MCP-2 (ligand, human, UniProt P80075 24-99, looked up)
chain: QPDSVSIPITCCFNVINRKIPIQRLESYTRITNIQCPKEAVIFKTKRGKEVCADPKERWVRDSMKHLDQIFQNLKP
Take B1: the “activity in an Aequorin assay (partial agonist), EC50” value with hCCR2b was 23.5 nM.
